In the supplement of paper PMC11246515:
± gives the standard deviation of the averaged measurements.

Experiment: total protein half-life in vivo (active degradation + dilution); higher = more stable protein
[1] = E. coli NCM3722 delta-clpP delta-lon delta-hslV, growth: N-lim chemostat, doubling time 6 h
[2] = E. coli NCM3722 delta-clpP, growth: N-lim chemostat, doubling time 6 h
[3] = E. coli NCM3722 delta-hslV, growth: N-lim chemostat, doubling time 6 h
[4] = E. coli NCM3722 delta-lon, growth: N-lim chemostat, doubling time 6 h
[5] = E. coli NCM3722 delta-smpB, growth: N-lim chemostat, doubling time 6 h
[6] = wild type E. coli NCM3722, growth: C-lim chemostat, doubling time 3 h
[7] = wild type E. coli NCM3722, growth: C-lim chemostat, doubling time 6 h
[8] = wild type E. coli NCM3722, growth: C-lim chemostat, doubling time 12 h
[9] = wild type E. coli NCM3722, growth: N-lim chemostat, doubling time 6 h
[10] = wild type E. coli NCM3722, growth: N-lim chemostat, doubling time 12 h
[11] = wild type E. coli NCM3722, growth: P-lim chemostat, doubling time 6 h
[12] = wild type E. coli NCM3722, growth: P-lim chemostat, doubling time 12 h

Row | Sequence | total protein half-life in vivo [1] [h] | total protein half-life in vivo [2] [h] | total protein half-life in vivo [3] [h] | total protein half-life in vivo [4] [h] | total protein half-life in vivo [5] [h] | total protein half-life in vivo [6] [h] | total protein half-life in vivo [7] [h] | total protein half-life in vivo [8] [h] | total protein half-life in vivo [9] [h] | total protein half-life in vivo [10] [h] | total protein half-life in vivo [11] [h] | total protein half-life in vivo [12] [h]
1 | MMSLAWPLFRVTEQAALAAWPQTGCGDKNKIDGLAVTAMRQALNDVAFRGRVVIGEGEIDHAPMLWIGEEVGKGDGPEVDIAVDPIEGTRMVAMGQSNALAVMAFAPRDSLLHAPDMYMKKLVVNRLAAGAIDLSLPLTDNLRNVAKALGKPLDKLRMVTLDKPRLSAAIEEATQLGVKVFALPDGDVAASVLTCWQDNPYDVMYTIGGAPEGVISACAVKALGGDMQAELIDFCQAKGDYTENRQIAEQERKRCKAMGVDVNRVYSLDELVRGNDILFSATGVTGGELVNGIQQTANGVRTQTLLIGGADQTCNIIDSLH | 3.96 | – | – | – | – | – | – | – | – | – | – | –
2 | MMSQPAKVLLLYAHPESQDSVANRVLLKPATQLSNVTVHDLYAHYPDFFIDIPREQALLREHEVIVFQHPLYTYSCPALLKEWLDRVLSRGFASGPGGNQLAGKYWRSVITTGEPESAYRYDALNRYPMSDVLRPFELAAGMCRMHWLSPIIIYWARRQSAQELASHARAYGDWLANPLSPGGR [P0A756] | 5.94 ± 0.44 | 5.15 ± 0.59 | 5.89 ± 0.62 | 5.99 ± 0.26 | 5.51 ± 0.33 | 2.94 ± 0.079 | 5.7 ± 1.1 | 10.6 ± 2.5 | 5.63 ± 0.52 | 10.74 ± 0.04 | 5.239 ± 0.0081 | 10.6 ± 0.47
3 | MMSTTLFKDFTFEAAHRLPHVPEGHKCGRLHGHSFMVRLEITGEVDPHTGWIIDFAELKAAFKPTYERLDHHYLNDIPGLENPTSEVLAKWIWDQVKPVVPLLSAVMVKETCTAGCIYRGE | 4.72 ± 1 | 6.75 ± 0.54 | 5.07 | 6.5 ± 0.67 | 5.53 ± 0.14 | – | 6.53 ± 0.12 | 12.7 ± 0.82 | 7.08 | 13.1 ± 1.2 | 6.75 ± 0.27 | 13.2
4 | MMTTILTIHVPSTPGRAWNMLVALQAGNIVARYAKLHLYDAFAIQESRRVDAGNEIAPLLEVEGMKVGLMTCYDLRFPELALAQALQGAEILVLPAAWVRGPLKEHHWSTLLAARALDTTCYMVAAGECGNKNIGQSRIIDPFGVTIAAASEMPALIMAEVTPERVRQVRAQLPVLNNRRFAPPQLL [P0DP64] | 7.53 | – | – | – | – | – | – | – | – | – | – | –
5 | MMVIRPVERSDVSALMQLASKTGGGLTSLPANEATLSARIERAIKTWQGELPKSEQGYVFVLEDSETGTVAGICAIEVAVGLNDPWYNYRVGTLVHASKELNVYNALPTLFLSNDHTGSSELCTLFLDPDWRKEGNGYLLSKSRFMFMAAFRDKFNDKVVAEMRGVIDEHGYSPFWQSLGKRFFSMDFSRADFLCGTGQKAFIAELMPKHPIYTHFLSQEAQDVIGQVHPQTAPARAVLEKEGFRYRNYIDIFDGGPTLECDIDRVRAIRKSRLVEVAEGQPAQGDFPACLVANENYHHFRVVLVRTDPATERLILTAAQLDALKCHAGDRVRLVRLCAEEKTA [P0AE37] | 5.43 ± 0.59 | 2.85 ± 0.19 | 2.96 ± 0.92 | 2.88 ± 0.041 | 2.78 ± 0.33 | 2.58 ± 0.12 | 4.56 ± 0.31 | 9.68 ± 2.2 | 2.452 ± 0.0032 | 3.22 ± 0.69 | 4.07 ± 0.25 | 9.08 ± 0.78
6 | MMYHIPGVLSPQDVARFREQLEQAEWVDGRVTTGAQGAQVKNNQQVDTRSTLYAALQNEVLNAVNQHALFFAAALPRTLSTPLFNRYQNNETYGFHVDGAVRSHPQNGWMRTDLSATLFLSDPQSYDGGELVVNDTFGQHRVKLPAGDLVLYPSSSLHCVTPVTRGVRVASFMWIQSMIRDDKKRAMLFELDNNIQSLKSRYGESEEILSLLNLYHNLLREWSEI | 4.14 ± 0.34 | 2.79 | 2.86 | 3.12 ± 0.055 | 2.31 ± 0.3 | 3 ± 0.17 | 4.856 ± 0.037 | 6.39 | – | 4.16 | 5.85 ± 0.63 | 11.4 ± 1.4
7 | MNAIWIAVAAVSLLGLAFGAILGYASRRFAVEDDPVVEKIDEILPQSQCGQCGYPGCRPYAEAISCNGEKINRCAPGGEAVMLKIAELLNVEPQPLDGEAQEITPARMVAVIDENNCIGCTKCIQACPVDAIVGATRAMHTVMSDLCTGCNLCVDPCPTHCISLQPVAETPDSWKWDLNTIPVRIIPVEHHA | 2.26 ± 0.093 | 1.52 | – | – | 0.89 | – | 0.945 | – | – | – | – | 1.92 ± 0.49
8 | MNALLSNPFKERLRKGEVQIGLWLSSTTAYMAEIAATSGYDWLLIDGEHAPNTIQDLYHQLQAVAPYASQPVIRPVEGSKPLIKQVLDIGAQTLLIPMVDTAEQARQVVSATRYPPYGERGVGASVARAARWGRIENYMAQVNDSLCLLVQVESKTALDNLDEILDVEGIDGVFIGPADLSASLGYPDNAGHPEVQRIIETSIRRIRAAGKAAGFLAVAPDMAQQCLAWGANFVAVGVDTMLYSDALDQRLAMFKSGKNGPRIKGSY | – | 2.69 ± 0.27 | – | – | 2.17 | 2.74 | 4.08 | 6.62 ± 0.94 | – | 3.25 | – | –
9 | MNATAAQTKSLEWLNRLRANPKIPLIVAGSAAVAVMVALILWAKAPDYRTLFSNLSDQDGGAIVSQLTQMNIPYRFSEASGAIEVPADKVHELRLRLAQQGLPKGGAVGFELLDQEKFGISQFSEQVNYQRALEGELSRTIETIGPVKGARVHLAMPKPSLFVREQKSPSASVTVNLLPGRALDEGQISAIVHLVSSAVAGLPPGNVTLVDQGGHLLTQSNTSGRDLNDAQLKYASDVEGRIQRRIEAILSPIVGNGNIHAQVTAQLDFASKEQTEEQYRPNGDESHAALRSRQLNESEQSGSGYPGGVPGALSNQPAPANNAPISTPPANQNNRQQQASTTSNSGPRSTQRNETSNYEVDRTIRHTKMNVGDVQRLSVAVVVNYKTLPDGKPLPLSNEQMKQIEDLTREAMGFSEKRGDSLNVVNSPFNSSDESGGELPFWQQQAFIDQLLAAGRWLLVLLVAWLLWRKAVRPQLTRRAEAMKAVQQQAQAREEVEDAVEVRLSKDEQLQQRRANQRLGAEVMSQRIREMSDNDPRVVALVIRQWINNDHE | 6.55 | 6.44 | – | – | – | 2.6 ± 0.24 | 4.73 ± 0.44 | 6.98 ± 0.67 | – | – | – | –
10 | MNAVTEGRKVLLEIADLKVHFEIKDGKQWFWQPPKTLKAVDGVTLRLYEGETLGVVGESGCGKSTFARAIIGLVKATDGHVAWLGKELLGMKPDEWRAVRSDIQMIFQDPLASLNPRMTIGEIIAEPLRTYHPKMSRQEVRERVKAMMLKVGLLPNLINRYPHEFSGGQCQRIGIARALILEPKLIICDEPVSALDVSIQAQVVNLLQQLQREMGLSLIFIAHDLAVVKHISDRVLVMYLGHAVELGTYDEVYHNPLHPYTRALMSAVPIPDPDLEKNKTIQLLEGELPSPINPPSGCVFRTRCPIAGPECAKTRPVLEGSFRHSVSCLKVDPL | 5.54 ± 0.093 | 5.82 ± 0.9 | 4.61 ± 0.15 | 4.14 ± 0.14 | 6.25 ± 1.4 | 2.65 ± 0.51 | 6.13 ± 1.6 | 10.3 ± 0.15 | 5.03 ± 0.17 | 8.26 ± 0.85 | 5.69 ± 0.078 | 12.15 ± 0.025
11 | MNAWEVNFDGLVGLTHHYAGLSFGNEASTRHRFQVSNPRLAAKQGLLKMKALADAGFPQAVIPPHERPFIPVLRQLGFSGSDEQVLEKVARQAPHWLSSVSSASPMWVANAATIAPSADTLDGKVHLTVANLNNKFHRSLEAPVTESLLKAIFNDEEKFSVHSALPQVALLGDEGAANHNRLGGHYGEPGMQLFVYGREEGNDTRPSRYPARQTREASEAVARLNQVNPQQVIFAQQNPDVIDQGVFHNDVIAVSNRQVLFCHQQAFARQSQLLANLRARVNGFMAIEVPATQVSVSDTVSTYLFNSQLLSRDDGSMMLVLPQECREHAGVWGYLNELLAADNPISELKVFDLRESMANGGGPACLRLRVVLTEEERRAVNPAVMMNDTLFNALNDWVDRYYRDRLTAADLADPQLLREGREALDVLSQLLNLGSVYPFQREGGGNG | 4.1 ± 0.25 | 2.42 ± 0.32 | 2.8 ± 0.29 | 2.88 ± 0.035 | 2.75 ± 0.14 | 3.06 ± 0.31 | 5.17 ± 0.51 | 8.64 ± 0.32 | 2.74 ± 0.35 | 3.749 ± 0.0089 | 5.69 ± 0.31 | 9.79 ± 1.5
